Assay [1] concerns the target T1, native PRLR expressing T47D cells (Homo sapiens, UniProt P16471).
T1 construct: a native PRLR expressing cell line (T47D); endogenous in cells; host or cells: T47D
T1 sequence (P16471 25-622): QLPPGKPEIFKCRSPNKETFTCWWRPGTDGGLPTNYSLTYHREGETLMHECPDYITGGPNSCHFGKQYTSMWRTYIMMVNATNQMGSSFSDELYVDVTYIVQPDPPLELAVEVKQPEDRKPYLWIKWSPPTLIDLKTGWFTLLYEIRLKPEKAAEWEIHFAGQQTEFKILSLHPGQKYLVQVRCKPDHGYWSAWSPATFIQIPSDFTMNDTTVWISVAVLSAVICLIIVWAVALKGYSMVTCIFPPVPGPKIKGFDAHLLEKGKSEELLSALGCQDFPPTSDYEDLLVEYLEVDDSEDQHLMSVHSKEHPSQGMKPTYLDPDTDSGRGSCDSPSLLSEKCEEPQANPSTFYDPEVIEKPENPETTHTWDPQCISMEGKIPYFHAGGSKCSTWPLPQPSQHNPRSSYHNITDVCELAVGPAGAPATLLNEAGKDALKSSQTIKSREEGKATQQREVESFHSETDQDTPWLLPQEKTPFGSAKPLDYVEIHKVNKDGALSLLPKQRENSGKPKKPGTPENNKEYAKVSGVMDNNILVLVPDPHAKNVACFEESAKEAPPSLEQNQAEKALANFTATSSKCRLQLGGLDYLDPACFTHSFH
Description: FACS cell surface binding. The protocol:
(§1) Cell surface expression of PRLR on 293/hPRLR cells was assessed via FACS analysis. Briefly, 1×10^5 cells were incubated with 10 μg/ml of Control antibody I, or an isotype control for 30 min on ice in antibody dilution buffer. Following two washes with antibody dilution buffer, cells were incubated with 10 μg/ml of PE conjugated anti-human secondary antibodies for 30 min on ice. Following two additional washes, samples were run on a Hypercyt® cytometer and analyzed in ForeCyt™ (IntelliCyt, Albuquerque, N. Mex.). The mean fluorescence intensities (MFI) were expressed as fold change above isotype control levels (background). FACS binding confirmed that Control I selectively bound to 293/hPRLR expressing cells with MFIs that were 30 fold above background (isotype ctrl) levels and less than 2 fold binding on parental cells.
(§2) Next, the anti-PRLR antibodies were tested via FACS for selective binding to the engineered overexpressing PRLR HEK293 cell lines, as well as to non-expressing HEK293 cells and a native PRLR expressing cell line (T47D).

Assay [2] has as its target T2, monkey PRLR on HEK293/mfPRLR cells (Macaca fascicularis, UniProt A0A2K5WXK1).
T2 construct: HA; expressed in transfected cells; host or cells: HEK293
T2 sequence (A0A2K5WXK1 25-619): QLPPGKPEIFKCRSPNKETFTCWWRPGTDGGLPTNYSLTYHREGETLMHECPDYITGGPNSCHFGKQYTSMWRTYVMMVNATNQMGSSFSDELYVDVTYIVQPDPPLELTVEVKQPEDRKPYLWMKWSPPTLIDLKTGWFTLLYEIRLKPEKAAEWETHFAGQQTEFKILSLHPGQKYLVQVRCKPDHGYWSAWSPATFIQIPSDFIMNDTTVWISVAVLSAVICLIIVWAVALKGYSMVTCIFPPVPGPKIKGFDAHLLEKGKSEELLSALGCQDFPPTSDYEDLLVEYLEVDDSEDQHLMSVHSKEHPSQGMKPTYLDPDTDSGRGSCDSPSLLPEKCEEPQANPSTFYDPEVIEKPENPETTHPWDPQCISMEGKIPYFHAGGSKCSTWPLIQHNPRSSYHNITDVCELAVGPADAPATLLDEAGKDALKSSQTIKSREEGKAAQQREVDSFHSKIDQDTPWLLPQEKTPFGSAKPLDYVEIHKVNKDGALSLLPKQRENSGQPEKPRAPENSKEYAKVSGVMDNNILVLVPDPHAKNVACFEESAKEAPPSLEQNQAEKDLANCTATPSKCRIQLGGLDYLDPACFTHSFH
Description: FACS cell surface binding. On the procedure: (§3) The ability of anti-PRLR antibodies to selectively bind PRLR expressing cell lines was next determined. Human, monkey Macaca fascicularis, and mouse PRLR constructs with an HA tag were stably introduced into HEK293 cells via Lipofectamine 2000-mediated transfection methodology. Transfectants (HEK293/hPRLR, HEK293/mfPRLR and HEK293/mPRLR) were selected for at least 2 weeks in complete growth media plus G418.
as §1, §2

The target in assay [3] is T3, mouse PRLR on HEK293/mPRLR cells (Mus musculus, UniProt Q08501).
T3 construct: HA; expressed in transfected cells; host or cells: HEK293
T3 sequence (Q08501 20-608): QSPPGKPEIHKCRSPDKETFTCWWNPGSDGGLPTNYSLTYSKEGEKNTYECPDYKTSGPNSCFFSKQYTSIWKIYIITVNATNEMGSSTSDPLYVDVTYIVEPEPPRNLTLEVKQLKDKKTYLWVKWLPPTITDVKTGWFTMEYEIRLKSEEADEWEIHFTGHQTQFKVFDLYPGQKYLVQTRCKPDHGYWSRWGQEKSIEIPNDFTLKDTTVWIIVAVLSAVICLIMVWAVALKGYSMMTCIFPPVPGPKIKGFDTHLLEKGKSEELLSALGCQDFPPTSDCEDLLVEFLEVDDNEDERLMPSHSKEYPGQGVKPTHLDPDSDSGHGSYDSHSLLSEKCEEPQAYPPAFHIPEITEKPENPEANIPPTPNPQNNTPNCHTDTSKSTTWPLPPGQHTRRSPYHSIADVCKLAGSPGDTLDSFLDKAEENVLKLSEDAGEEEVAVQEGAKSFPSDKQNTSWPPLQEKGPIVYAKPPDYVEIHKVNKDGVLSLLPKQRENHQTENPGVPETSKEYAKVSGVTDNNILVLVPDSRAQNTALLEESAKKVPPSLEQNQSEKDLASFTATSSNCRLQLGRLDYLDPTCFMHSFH
In words: FACS cell surface binding. On the procedure:
as §3, §1, §2

Assay [4] concerns the target T4, human PRLR on HEK293/hPRLR cells (Homo sapiens, UniProt P16471).
T4 construct: HA; expressed in transfected cells; host or cells: HEK293
T4 sequence (P16471 25-622): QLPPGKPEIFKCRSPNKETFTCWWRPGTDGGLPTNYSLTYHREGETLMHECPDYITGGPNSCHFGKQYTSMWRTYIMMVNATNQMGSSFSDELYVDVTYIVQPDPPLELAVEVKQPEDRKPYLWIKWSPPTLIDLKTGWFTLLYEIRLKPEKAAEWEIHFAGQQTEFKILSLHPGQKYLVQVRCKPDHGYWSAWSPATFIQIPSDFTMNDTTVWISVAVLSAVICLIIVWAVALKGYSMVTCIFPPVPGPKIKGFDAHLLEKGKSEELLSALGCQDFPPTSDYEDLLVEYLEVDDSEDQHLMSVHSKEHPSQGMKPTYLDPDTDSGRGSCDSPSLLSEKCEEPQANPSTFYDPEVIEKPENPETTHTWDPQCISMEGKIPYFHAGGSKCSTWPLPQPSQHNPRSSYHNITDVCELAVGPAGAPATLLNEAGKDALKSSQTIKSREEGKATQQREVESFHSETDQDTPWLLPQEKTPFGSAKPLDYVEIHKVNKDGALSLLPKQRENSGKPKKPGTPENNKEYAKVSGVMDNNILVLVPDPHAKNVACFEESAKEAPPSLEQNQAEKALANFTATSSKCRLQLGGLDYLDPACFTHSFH
In words: FACS cell surface binding. On the procedure: as §3, §1, §2

Assay [5] relates to Macaca fascicularis PRLR (mfPRLR.mmh; SEQ ID NO:403). In words: Surface plasmon resonance (Biacore T200), antibody-capture format. Format: binding. As to conditions: analyte mfPRLR.mmh. The protocol:
(§4) Antibodies, expressed as human IgG1 Fc (i.e., “H1H” designations), were captured onto an anti-human Fc sensor surface (mAb-capture format), and soluble monomeric (hPRLR.mmh; SEQ ID NO:401, or Macaca fascicularis (mf) PRLR.mmh; SEQ ID NO:403) or dimeric (hPRLR.mFc; SEQ ID NO:402) PRLR protein was injected over the sensor surface. Measurements were conducted on a T200 Biacore instrument. Kinetic association (ka) and dissociation (kd) rate constants were determined by processing and fitting the data to a 1:1 binding model using Scrubber 2.0 curve fitting software.
A general note: SPR reads the build-up and loss of mass on a sensor chip optically.

In assay [6] the target is T5, monomeric human PRLR (hPRLR.mmh; SEQ ID NO:401) (Homo sapiens, UniProt P16471).
T5 construct: soluble monomeric (hPRLR.mmh); mmh (myc-myc-hexahistidine) (C)
The description is as above. Format: binding. The settings on record: analyte hPRLR.mmh. The protocol:
as §4

Assay [7] has as its target T6, dimeric human PRLR (hPRLR.mFc; SEQ ID NO:402) (Homo sapiens, UniProt P16471).
T6 construct: dimeric (hPRLR.mFc)
The assay is described as above. Type of assay: binding. The settings on record: analyte hPRLR.mFc. The protocol:
as §4

Assay [8] has as its system HEK293 parental cells. In words: FACS cell surface binding. The arrangement: species or system human. On the procedure:
as §3, §1, §2

Sequence of Macaca fascicularis PRLR (mfPRLR.mmh; SEQ ID NO:403) (as listed by the source): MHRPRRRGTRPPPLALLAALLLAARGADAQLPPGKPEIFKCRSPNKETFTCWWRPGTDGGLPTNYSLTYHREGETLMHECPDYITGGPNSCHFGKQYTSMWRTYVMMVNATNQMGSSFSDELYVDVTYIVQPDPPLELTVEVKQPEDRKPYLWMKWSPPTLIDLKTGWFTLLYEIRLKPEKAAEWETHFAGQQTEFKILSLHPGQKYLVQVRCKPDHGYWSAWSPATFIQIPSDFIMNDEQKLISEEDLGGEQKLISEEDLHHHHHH
T5 sequence (P16471 with tags, fused parts or gaps): as the sequence (as listed by the source) above, with V105I, T139A, M154I, T187I, I236T counted along it
T6 sequence (P16471 with tags, fused parts or gaps): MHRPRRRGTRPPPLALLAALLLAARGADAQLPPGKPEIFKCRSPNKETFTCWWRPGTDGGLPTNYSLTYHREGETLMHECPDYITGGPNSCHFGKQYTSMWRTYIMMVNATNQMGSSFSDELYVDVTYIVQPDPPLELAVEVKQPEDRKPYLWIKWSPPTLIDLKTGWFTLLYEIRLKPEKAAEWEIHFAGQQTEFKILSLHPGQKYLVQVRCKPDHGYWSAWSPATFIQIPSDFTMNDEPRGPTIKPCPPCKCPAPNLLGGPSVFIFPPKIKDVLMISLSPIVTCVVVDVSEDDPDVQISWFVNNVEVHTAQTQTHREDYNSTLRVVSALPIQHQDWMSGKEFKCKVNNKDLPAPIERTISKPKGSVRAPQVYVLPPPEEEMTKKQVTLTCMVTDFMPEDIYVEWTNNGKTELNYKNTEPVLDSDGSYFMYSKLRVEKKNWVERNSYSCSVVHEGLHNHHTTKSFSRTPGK

B1: H1H6790P: fully human anti-PRLR antibody, human IgG1 Fc; HCVR/LCVR SEQ ID NOs 114/122 (antibody, V domains shown)
VH: EVQLVESGGGLVQPGGSLRLSCAASGFTFSSYAMTWVRQAPGKGLEWVSAITGSVGNTYYADSVKGRFTISRDNSKNTLYLQMNSLGAEDTAEYYCAKGAGMTTNWYLDLWGRGTLVTVSS
VL: DIVMTQSPDSLAVSLGARATINCKSSQSVLYSSNNQNYLTWYQQKPGQPPKLLIKWASTRESGVPDRFSGSGSGTDFTLTISSLQAEDVAVYYCQQYASSPYTFGQGTKLEIK
Regarding B1, the “FACS Cell Binding” value came out at 34 Fold Above Background in assay [1]; 24 Fold Above Background in assay [2]; 1 Fold Above Background in assay [3]; 37 Fold Above Background in assay [4]; 1 Fold Above Background in assay [8]. Besides, the ka in assay [5] (25° C.) was 389000 M/s; in assay [5] (37° C.) it was 615000 M/s; in assay [6] (25° C.), 565000 M/s; in assay [6] (37° C.), 940000 M/s; in assay [7] (25° C.) it was 542000 M/s; in assay [7] (37° C.), 646000 M/s. Further, the kd in assay [5] (25° C.) was determined as 0.000793 s⁻¹; in assay [5] (37° C.), 0.00321 s⁻¹; in assay [6] (25° C.) it was 0.000799 s⁻¹; in assay [6] (37° C.) it was 0.00329 s⁻¹; in assay [7] (25° C.), 0.000104 s⁻¹; in assay [7] (37° C.), 0.000198 s⁻¹.

B2: H1H6781P: fully human anti-PRLR antibody, human IgG1 Fc; HCVR/LCVR SEQ ID NOs 50/58 (antibody, V domains shown)
VH: EVQLVESGGDLVQPGESLRLSCTASGFTFNSYEMNWVRQAPGKGLEWVSYISSSGGTKYYVDSVKGRFTISRDNAKKSLYLQMNSLRADDTALYYCARLNGVDVFDIWGQGTMVTVSS
VL: DIQMTQSPSSLSASVGDRVTITCRASQDIFNYLAWFQQKPGKVPELLISAASTLQSGVPSRFSGSGSGTYFTLTISSLQPEDIATYYCQRYNSAPLTFGGGTKVEIK
Consider B2, for which the “FACS Cell Binding” value is given as 40 Fold Above Background in assay [1]; 26 Fold Above Background in assay [2]; 1 Fold Above Background in assay [3]; 37 Fold Above Background in assay [4]; 1 Fold Above Background in assay [8]. Besides, the ka came out at 143000 M/s in assay [5] (25° C.); 247000 M/s in assay [5] (37° C.); 208000 M/s in assay [6] (25° C.); 339000 M/s in assay [6] (37° C.); 257000 M/s in assay [7] (25° C.); 436000 M/s in assay [7] (37° C.). Further, the kd was 0.000141 s⁻¹ in assay [5] (25° C.); 0.000267 s⁻¹ in assay [5] (37° C.); 0.000127 s⁻¹ in assay [6] (25° C.); 0.000309 s⁻¹ in assay [6] (37° C.); 6.05e-05 s⁻¹ in assay [7] (25° C.); 9.84e-05 s⁻¹ in assay [7] (37° C.).

B3: H1H6785P: fully human anti-PRLR antibody, human IgG1 Fc; HCVR/LCVR SEQ ID NOs 98/106 (antibody, V domains shown)
VH: EVQLVESGGGLVQPGGSLRLSCAASGFTFSSYEMNWVRQAPGKGLEWISYISSRGGTIYYADSIKGRFTIYRDNARNSLYLQMNSLRAEDTAIYYCARLSGVDIFDIWGQGTMVTVSS
VL: DIQMTQSPSSLSASVGDRVTITCRASQGISNYLAWYQQKPGKVPKLLIYFASTLQSGVPSRFSGGGSGTDFTLTISSLQPEDVATYYCQRYNSAPLTFGGGTKVEIK
In the case of B3, the “FACS Cell Binding” value worked out at 40 Fold Above Background in assay [1]; 26 Fold Above Background in assay [2]; 2 Fold Above Background in assay [3]; 37 Fold Above Background in assay [4]; 1 Fold Above Background in assay [8]. Further, the ka was 227000 M/s in assay [5] (25° C.); 297000 M/s in assay [5] (37° C.); 301000 M/s in assay [6] (25° C.); 426000 M/s in assay [6] (37° C.); 263000 M/s in assay [7] (25° C.); 456000 M/s in assay [7] (37° C.). The kd in assay [5] (25° C.) worked out at 0.000167 s⁻¹; in assay [5] (37° C.), 0.00045 s⁻¹; in assay [6] (25° C.), 0.000171 s⁻¹; in assay [6] (37° C.), 0.000484 s⁻¹; in assay [7] (25° C.), 6.07e-05 s⁻¹; in assay [7] (37° C.), 0.000117 s⁻¹.

Source of the values: patent US10925971B2, “Methods of treating PRLR positive breast cancer” (Regeneron Pharmaceuticals, Inc., priority 2016, dated 2021).
